The results in this text go back to PMC11557686.

First the molecules themselves.
B1: SmBiT-SEC24A [not stated] / LgBiT-SURF4 [not stated] (parent)
chain 1: MSQPGIPASGGAPASLQAQNGAALASGSPYTNGPVQNALLSSQESVSQGYNFQLPGSYPHPIPAKTLNPVSGQSNYGGSQGSGQTLNRPPVASNPVTPSLHSGPAPRMPLPASQNPATTPMPSSSFLPEANLPPPLNWQYNYPSTASQTNHCPRASSQPTVSGNTSLTTNHQYVSSGYPSLQNSFIKSGPSVPPLVNPPLPTTFQPGAPHGPPPAGGPPPVRALTPLTSSYRDVPQPLFNSAVNQEGITSNTNNGSMVVHSSYDEIEGGGLLATPQLTNKNPKMSRSVGYSYPSLPPGYQNTTPPGATGVPPSSLNYPSGPQAFTQTPLGANHLTTSMSGLSLQPEGLRVVNLLQERNMLPSTPLKPPVPNLHEDIQKLNCNPELFRCTLTSIPQTQALLNKAKLPLGLLLHPFKDLVQLPVVTSSTIVRCRSCRTYINPFVSFLDQRRWKCNLCYRVNDVPEEFLYNPLTRVYGEPHRRPEVQNATIEFMAPSEYMLRPPQPPVYLFVFDVSHNAVETGYLNSVCQSLLDNLDLLPGNTRTKIGFITFDSTIHFYGLQESLSQPQMLIVSDIEDVFIPMPENLLVNLNESKELVQDLLKTLPQMFTKTLETQSALGPALQAAFKLMSPTGGRMSVFQTQLPTLGVGALKPREEPNHRSSAKDIHMTPSTDFYKKLALDCSGQQVAVDLFLLSGQYSDLASLGCISRYSAGSVYYYPSYHHQHNPVQVQKLQKELQRYLTRKIGFEAVMRIRCTKGLSIHTFHGNFFVRSTDLLSLPNVNPDAGYAVQMSVEESLTDTQLVSFQSALLYTSSKGERRIRVHTLCLPVVSTLNDVFLGADVQAISGLLANMAVDRSMTASLSDARDALVNAVIDSLSAYRSSVLSNQQPGLMVPFSLRLFPLFVLALLKQKSFQTGTNARLDERIFAMCQVKNQPLVYLMLTTHPSLYRVDNLSDEGALNISDRTIPQPPILQLSVEKLSRDGAFLMDAGSVLMLWVGKNCTQNFLSQVLGVQNYASIPQPMTDLPELDTPESARIIAFISWLREQRPFFPILYVIRDESPMKANFLQNMIEDRTESALSYYEFLLHIQQQVNK
chain 2: MGQNDLMGTAEDFADQFLRVTKQYLPHVARLCLISTFLEDGIRMWFQWSEQRDYIDTTWNCGYLLASSFVFLNLLGQLTGCVLVLSRNFVQYACFGLFGIIALQTIAYSILWDLKFLMRNLALGGGLLLLLAESRSEGKSMFAGVPTMRESSPKQYMQLGGRVLLVLMFMTLLHFDASFFSIVQNIVGTALMILVAIGFKTKLAALTLVVWLFAINVYFNAFWTIPVYKPMHDFLKYDFFQTMSVIGGLLLVVALGPGGVSMDEKKKEW

Variants of B1 are the subject of this assay. The assay can be described thus: NanoBiT. As to conditions: with LgBiT-SURF4; six technical replicates in each of three independent biological replicates; parent: 1; read off a plot.
chain 1 R541A: the ratio to parent stood at 1.
For the variant chain 1 K813A, the ratio to parent is 0.98.
Take chain 1 R750A R752A: the ratio to parent is 0.5.
Take chain 1 Y437A: the ratio to parent was 0.62.
